Laboratory results: publication PMC4148589

Molecular target: CaV1.1 chimera containing the I–II loop of the CaV2.1 α1A subunit (pc-α1SI–IIA)
Assay: FRAP

Chain of skeletal muscle β1a subunit, GFP-tagged (pcDNA3-β1a-GFP) (P19517 whole entry): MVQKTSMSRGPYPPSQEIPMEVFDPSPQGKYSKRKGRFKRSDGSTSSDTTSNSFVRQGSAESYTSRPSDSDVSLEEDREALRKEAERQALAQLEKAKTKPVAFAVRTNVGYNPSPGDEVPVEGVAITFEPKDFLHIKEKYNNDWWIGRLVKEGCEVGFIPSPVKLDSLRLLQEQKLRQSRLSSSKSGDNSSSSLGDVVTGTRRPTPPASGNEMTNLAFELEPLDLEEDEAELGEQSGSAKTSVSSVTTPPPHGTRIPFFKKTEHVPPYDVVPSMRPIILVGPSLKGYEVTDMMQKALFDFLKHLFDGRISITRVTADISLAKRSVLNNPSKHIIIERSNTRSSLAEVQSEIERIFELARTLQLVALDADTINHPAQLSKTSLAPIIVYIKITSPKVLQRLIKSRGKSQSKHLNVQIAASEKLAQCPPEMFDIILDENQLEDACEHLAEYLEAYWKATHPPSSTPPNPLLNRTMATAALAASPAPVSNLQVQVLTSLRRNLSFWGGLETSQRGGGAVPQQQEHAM

R75 (fractional fluorescence recovery 75 s after bleaching): 20.5%
Substance: skeletal muscle β1a subunit, GFP-tagged (pcDNA3-β1a-GFP) (from UniProt P19517 1-524) (natural protein)
